Source: patent US20250206828A1, “ANTI-ADENOSINE RECEPTOR (A2aR) ANTIBODIES AND THE USE THEREOF” (Adept Therapeutics Inc., priority 2022, published 2025)
Changes are numbered by the printed parent chain. Names may count otherwise. Like-named read-outs stand apart in the source and are kept apart here. Each block holds one binder with its values, some of them ahead of it.

Tests used:
[1] = target: T1, human adenosine A2A receptor (A2aR) (human, UniProt P29274 1-412); assay: flow cytometry titration, HEK293-hA2aR cells, purified antibody
T1 construct: Assays used HEK293 cells stably overexpressing human A2aR (BPS Bioscience 79381), human A2aR-expressing CHO cells, or endogenous A2aR on human PBMC; also called human A2aR; hA2aR
T1 sequence (P29274 whole entry): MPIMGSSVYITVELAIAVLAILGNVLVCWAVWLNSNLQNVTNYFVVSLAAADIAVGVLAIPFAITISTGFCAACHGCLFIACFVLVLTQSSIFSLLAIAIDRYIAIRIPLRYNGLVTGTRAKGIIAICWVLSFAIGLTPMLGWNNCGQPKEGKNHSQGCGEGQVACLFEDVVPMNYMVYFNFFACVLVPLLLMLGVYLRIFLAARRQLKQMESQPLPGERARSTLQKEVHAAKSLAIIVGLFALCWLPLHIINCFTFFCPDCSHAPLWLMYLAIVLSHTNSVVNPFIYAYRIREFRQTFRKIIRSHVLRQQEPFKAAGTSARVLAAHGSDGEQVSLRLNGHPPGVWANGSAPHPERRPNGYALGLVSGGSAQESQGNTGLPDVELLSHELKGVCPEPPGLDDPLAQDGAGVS

[2] = target: T1, human adenosine A2A receptor (A2aR); assay: flow cytometry, HEK293-hA2aR cells, supernatant 1 ug/ml
[3] = target: T1, human adenosine A2A receptor (A2aR); assay: cell-based or functional assay
[4] = target: T1, human adenosine A2A receptor (A2aR); assay: flow cytometry, HEK293-hA2aR cells, supernatant 1 ug/ml
[5] = target: T1, human adenosine A2A receptor (A2aR); assay: as above; remark: listed apart in the source
[6] = target: T1, human adenosine A2A receptor (A2aR); assay: cell-based or functional assay; remark: listed apart in the source

EC50 [1]: 0.52 nM | MFI [2]: 1920 MFI | IC50 of blocking activity, cAMP-Glo, 300 nM NECA, HEK293-hA2aR cells, supernatant [3]: 7.8 nM
B1: Hu3F6-H5/Hu3F6-L4 (antibody, human IgG1, V domains shown)
VH: EVQLVQSGAEVKKPGASVKVSCKTSGFAFTSYWMNWVRQAPGQGLEWIGRIDPSDSEAHYAHKFWGRATLTVDKSSSTVYMELSSLRSEDTAVYYCLRSLYGKGDYWGHGTTVTVSS
VL: DIVMTQTPLSLSVTPGQPASISCRSSQSLVHRNGNTYLEWYLQKPGQSPQLLIYKVSNRFSGVPDRFSGSGSGTDFTLKISRVEAEDVGVYYCYQGSHVPLTFGGGTKVEIK
notes: Human IgG1 FES (L234F, L235E, P331S) and human Ig kappa constant domains; also called Hu3F6 VH5/VL4

MFI [4]: 152 MFI
B2: Hu1B5-H3/Hu1B5-L1 (antibody, human IgG1, V domains shown)
VH: EVQLVQSGAEVKKPGASVKVSCKTSGFTFTRFWMNWVRQAPGQGLEWIGRIDPYDSETQYNHKFWDRATLTVDTSSSTVYMELSSLRSEDTAVYYCGRSLYGKGDYWGQGTTVTVSS
VL: DVVMTQSPLSLPVTLGQPASISCRSSQSIVHSNGNTYLEWFQQRPGQSPRRLIYKVSNRFSGVPDRFSGSGSGTDFTLKISRVEAEDVGVYYCFQGSHVPLTFGGGTKVEIK

MFI [5]: 1850 MFI | EC50 [1]: 0.83 nM | IC50 of blocking activity, cAMP-Glo, 300 nM NECA, HEK293-hA2aR cells, supernatant [6]: 1.5 nM
B3: Hu3F8-H3/Hu3F8-L5 (antibody, human IgG1, V domains shown)
VH: B2 VH with T24A, F32Y, Y54S, Q59H, D66G, S76T, G97L
VL: B1 VL with I2V, T7S, S12P, Q17E, L29I, R32S
notes: Human IgG1 FES (L234F, L235E, P331S) and human Ig kappa constant domains; also called Hu3F8 VH3/VL5

MFI [4]: 82 MFI
B4: Hu1B5-H5/Hu1B5-L1 (antibody, human IgG1, V domains shown)
VH: B2 VH with N61A, T74K
VL: B2 VL

MFI [4]: 191 MFI
B5: Hu3F6-H5/Hu3F6-L2 (antibody, human IgG1, V domains shown)
VH: B1 VH
VL: B2 VL with I29L, S32R, F41Y, F94Y

MFI [4]: 200 MFI
B6: Hu3F6-H3/Hu3F6-L2 (antibody, human IgG1, V domains shown)
VH: B1 VH with A61H, K74T
VL: B2 VL with I29L, S32R, F41Y, F94Y

MFI [4]: 165 MFI
B7: Hu1B5-H2/Hu1B5-L1 (antibody, human IgG1, V domains shown)
VH: B2 VH with I48M, A68V, L70M, S76T
VL: B2 VL

MFI [4]: 64 MFI
B8: Hu3F8-H3/Hu3F8-L1 (antibody, human IgG1, V domains shown)
VH: B2 VH with T24A, F32Y, Y54S, Q59H, D66G, S76T, G97L
VL: B2 VL with F94Y

EC50 [1]: 0.5 nM | MFI [2]: 2090 MFI | IC50 of blocking activity, cAMP-Glo, 300 nM NECA, HEK293-hA2aR cells, supernatant [3]: 1.3 nM
B9: Hu3F6-H5/Hu3F6-L3 (antibody, human IgG1, V domains shown)
VH: B1 VH
VL: B2 VL with I29L, S32R, F41Y, R51L, F94Y
notes: Human IgG1 FES (L234F, L235E, P331S) and human Ig kappa constant domains; also called Hu3F6 VH5/VL3

MFI [4]: 146 MFI
B10: Hu3F6-H2/Hu3F6-L2 (antibody, human IgG1, V domains shown)
VH: B1 VH with I48M, A61H, A68V, L70M, K74T, S76T
VL: B2 VL with I29L, S32R, F41Y, F94Y

MFI [4]: 182 MFI
B11: Hu1B5-H4/Hu1B5-L1 (antibody, human IgG1, V domains shown)
VH: B2 VH with T74K
VL: B2 VL

MFI [4]: 178 MFI
B12: Hu1B5-H6/Hu1B5-L1 (antibody, human IgG1, V domains shown)
VH: EVQLVQSGAEVKKPGESLRISCKTSGFTFTRFWMNWVRQMPGKGLEWIGRIDPYDSETQYNHKFWDHATLSVDKSSSTVYLQWSSLKASDTAMYYCGRSLYGKGDYWGQGTTVTVSS
VL: B2 VL

MFI [4]: 62 MFI
B13: Hu1B5-H1/Hu1B5-L2 (antibody, human IgG1, V domains shown)
VH: B2 VH with E1Q, T24A, I48M, A68V, L70M, V72R, S76T
VL: B2 VL with F41Y

EC50 [1]: 0.68 nM | MFI [2]: 1840 MFI | IC50 of blocking activity, cAMP-Glo, 300 nM NECA, HEK293-hA2aR cells, supernatant [3]: 19.5 nM
B14: Hu3F6-H3/Hu3F6-L4 (antibody, human IgG1, V domains shown)
VH: B1 VH with A61H, K74T
VL: B1 VL
notes: Human IgG1 FES (L234F, L235E, P331S) and human Ig kappa constant domains; also called Hu3F6 VH3/VL4

EC50 [1]: 0.64 nM | MFI [2]: 1930 MFI | IC50 of blocking activity, cAMP-Glo, 300 nM NECA, HEK293-hA2aR cells, supernatant [3]: 2 nM
B15: Hu3F6-H3/Hu3F6-L3 (antibody, human IgG1, V domains shown)
VH: B1 VH with A61H, K74T
VL: B2 VL with I29L, S32R, F41Y, R51L, F94Y
notes: Human IgG1 FES (L234F, L235E, P331S) and human Ig kappa constant domains; also called Hu3F6 VH3/VL3

MFI [4]: 93 MFI
B16: Hu3F8-H3/Hu3F8-L2 (antibody, human IgG1, V domains shown)
VH: B2 VH with T24A, F32Y, Y54S, Q59H, D66G, S76T, G97L
VL: B2 VL with F41Y, F94Y
